From US9187525B2, “Methods of treating ophthalmic diseases using NPR-B agonists” (Shire Orphan Therapies GmbH, dated 2015)
Numbered stars: 1 amine (or outer) side, 2 acyl side, 3 side chain; on linkers, the order of the positions; unused ones are H or OH. Square brackets hold non-standard residues; d marks the D form. Primed or numbered codes have the meaning given here. Ends that are not written are not given here. * marks the point of attachment. ξ: configuration not given here. Apc(Ae) = 4-amino-1-(2-amino-ethyl)-piperidine-4-carboxylic acid, O=C(C1(N[*:1])CCN(CCN[*:3])CC1)[*:2]; Apc(Et) = 4-amino-1-ethyl-piperidine-4-carboxylic acid, CCN1CCC(N[*:1])(C(=O)[*:2])CC1; Apc(Me) = 4-amino-1-methyl-piperidine-4-carboxylic acid, CN1CCC(N[*:1])(C(=O)[*:2])CC1; Pro(trans-4-NH2) = O=C([C@@H]1C[C@@H](N[*:3])CN1[*:1])[*:2]; Sni = (S)-nipecotic acid, O=C([C@H]1CCCN([*:1])C1)[*:2]; Tyr(3-I) = N[C@@H](Cc1ccc(O)c(I)c1)C(=O)O; Cpp = rac-(3R,4S)-cis-methanoproline; NMeR = CN[C@@H](CCCNC(=N)N)C(=O)O; dDap(Me2) = CN(C)C[C@@H](N)C(=O)O; Hyp = O=C(O)[C@@H]1C[C@@H](O)CN1; Gly(cPr) = N[C@H](C(=O)O)C1CC1; Aoc(2) = CCCCCC[C@H](N)C(=O)O; NMeL = CN[C@@H](CC(C)C)C(=O)O; Chg = N[C@H](C(=O)O)C1CCCCC1; Tle = CC(C)(C)[C@H](N)C(=O)O; ξαMeL = CC(C)CC(C)(N)C(=O)O; Octanoyl = CCCCCCCC(=O)*; Thz = O=C(O)[C@@H]1CSCN1; Api = NC1(C(=O)O)CCNCC1; Pip′ = not defined here; dAze = O=C(O)[C@H]1CCN1; Deg = CCC(N)(CC)C(=O)O; Oct = not defined here; Aib = CC(C)(N)C(=O)O; GABA = NCCCC(=O)O

B1: JAL-0653 (peptide)
peptide: XXFGLKLDRI
HELM: PEPTIDE1{[CCCCCC(=O)[*:2]].[O=C([C@H]1CC[C@H](CN[*:1])CC1)[*:2]].F.G.L.K.L.D.R.I.[am]}$$$$V2.0
SMILES: CCCCCC(=O)NC[C@H]1CC[C@H](C(=O)N[C@@H](Cc2ccccc2)C(=O)NCC(=O)N[C@@H](CC(C)C)C(=O)N[C@@H](CCCCN)C(=O)N[C@@H](CC(C)C)C(=O)N[C@@H](CC(=O)O)C(=O)N[C@@H](CCCNC(=N)N)C(=O)N[C@H](C(N)=O)[C@@H](C)CC)CC1
B2: JAL-1429 (peptide)
peptide: [Oct][Sni]F[dDap(Me2)]L[Hyp][NMeL]DRI-NH2
modifications: reading uncertain; also: printed as Oct-Sni-Phe-dap(Me2)-Leu-Hyp-Nml-Asp-Arg-Ile-NH2
B3: JAL-0651 (peptide)
peptide: XXFGLKLDRI
HELM: PEPTIDE1{[CCCCCC(=O)[*:2]].[O=C(C1CCN([*:1])CC1)[*:2]].F.G.L.K.L.D.R.I.[am]}$$$$V2.0
SMILES: CCCCCC(=O)N1CCC(C(=O)N[C@@H](Cc2ccccc2)C(=O)NCC(=O)N[C@@H](CC(C)C)C(=O)N[C@@H](CCCCN)C(=O)N[C@@H](CC(C)C)C(=O)N[C@@H](CC(=O)O)C(=O)N[C@@H](CCCNC(=N)N)C(=O)N[C@H](C(N)=O)[C@@H](C)CC)CC1
B4: JAL-0652 (peptide)
peptide: XXFGLKLDRI
HELM: PEPTIDE1{[CCCCCC(=O)[*:2]].[O=C(Cn1cccc(N[*:1])c1=O)[*:2]].F.G.L.K.L.D.R.I.[am]}$$$$V2.0
SMILES: CCCCCC(=O)Nc1cccn(CC(=O)N[C@@H](Cc2ccccc2)C(=O)NCC(=O)N[C@@H](CC(C)C)C(=O)N[C@@H](CCCCN)C(=O)N[C@@H](CC(C)C)C(=O)N[C@@H](CC(=O)O)C(=O)N[C@@H](CCCNC(=N)N)C(=O)N[C@H](C(N)=O)[C@@H](C)CC)c1=O

Molecular target: T1, natriuretic peptide receptor-B (human)
T1 chain: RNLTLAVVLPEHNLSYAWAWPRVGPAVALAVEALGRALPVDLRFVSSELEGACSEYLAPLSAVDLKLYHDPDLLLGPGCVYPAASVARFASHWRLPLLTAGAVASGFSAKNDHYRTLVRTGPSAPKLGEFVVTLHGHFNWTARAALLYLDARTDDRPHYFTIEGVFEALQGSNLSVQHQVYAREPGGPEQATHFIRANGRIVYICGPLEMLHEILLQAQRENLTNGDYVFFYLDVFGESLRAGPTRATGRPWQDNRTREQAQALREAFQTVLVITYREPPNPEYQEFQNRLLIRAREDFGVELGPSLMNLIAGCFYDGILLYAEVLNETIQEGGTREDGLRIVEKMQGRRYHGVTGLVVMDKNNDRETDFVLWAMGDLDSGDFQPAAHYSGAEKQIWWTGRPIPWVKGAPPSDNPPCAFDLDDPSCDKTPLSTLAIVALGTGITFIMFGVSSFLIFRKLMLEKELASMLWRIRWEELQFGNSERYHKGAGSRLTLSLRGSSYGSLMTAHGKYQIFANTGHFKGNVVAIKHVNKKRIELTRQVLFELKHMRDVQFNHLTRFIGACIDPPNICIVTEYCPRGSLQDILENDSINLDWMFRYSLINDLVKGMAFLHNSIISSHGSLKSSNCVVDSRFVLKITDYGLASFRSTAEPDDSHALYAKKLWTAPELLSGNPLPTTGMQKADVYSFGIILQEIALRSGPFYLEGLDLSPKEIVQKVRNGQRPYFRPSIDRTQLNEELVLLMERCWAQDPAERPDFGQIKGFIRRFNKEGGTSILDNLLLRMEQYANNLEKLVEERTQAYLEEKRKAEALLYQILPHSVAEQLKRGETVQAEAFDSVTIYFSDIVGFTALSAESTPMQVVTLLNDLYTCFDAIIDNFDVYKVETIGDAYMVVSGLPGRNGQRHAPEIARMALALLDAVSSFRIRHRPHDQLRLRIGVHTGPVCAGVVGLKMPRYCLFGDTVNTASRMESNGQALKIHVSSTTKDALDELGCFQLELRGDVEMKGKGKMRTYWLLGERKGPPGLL
Test: cell-based or functional assay

| Binder | EC50 group, cGMP in GTM-3 cells [µM] |
| --- | --- |
| [Tyr(3-I)][Aoc(2)]AFRL[Hyp][NMeL]DRI-NH2 (also: lower-case ala, arg: meaning not given here) [JAL-1430] | ≤ 1 |
| Octanoyl-AFRL[Hyp][NMeL]DPI-NH2 (also: lower-case ala, arg: meaning not given here) [JAL-1434] | ≤ 5 |
| Octanoyl-[Sni]F[dDap(Me2)]L[Pro(trans-4-NH2)][NMeL]VRI-NH2 [JAL-1405] | ≤ 1 |
| Octanoyl-AFLL[Hyp][NMeL]D[NMeR]I-NH2 (also: lower-case ala, leu: meaning not given here) [JAL-1417] | ≤ 1 |
| Octanoyl-[Sni]F[dL]L[Pro(trans-4-NH2)][NMeL]VRI-NH2 [JAL-1401] | ≤ 1 |
| Octanoyl-[dA]F[Apc(Ae)]A[dE]L[Hyp][NMeL]DRI-NH2 [JAL-1408] | ≤ 5 |
| Octanoyl-[Sni]F[dDap(Me2)]L[Hyp][NMeL]VRI-NH2 [JAL-1402] | ≤ 5 |
| Octanoyl-AFLL[Hyp][NMeL]D[Pip′]I-NH2 (also: lower-case ala, leu: meaning not given here) [JAL-1438] | ≤ 5 |
| B1 | ≤ 15 |
| Ac-[Tyr(3-I)][GABA][Aoc(2)]AFRL[Hyp][NMeL]DRI-NH2 (also: lower-case ala, arg: meaning not given here) [JAL-1432] | ≤ 15 |
| [Tyr(3-I)][GABA][Aoc(2)]AFRL[Hyp][NMeL]DRI-NH2 (also: lower-case ala, arg: meaning not given here) [JAL-1431] | ≤ 15 |
| Octanoyl-AFLL[Hyp][NMeL]D[Cpp]I-NH2 (also: lower-case ala, leu: meaning not given here) [JAL-1443] | ≤ 5 |
| Octanoyl-[Sni]F[dDap(Me2)]L[Pro(trans-4-NH2)][NMeL]VRI-NH2 [JAL-1403] | ≤ 1 |
| Octanoyl-AFLL[Hyp][NMeL][Chg]RI-NH2 (also: lower-case ala, leu: meaning not given here) [JAL-1421] | ≤ 15 |
| B2 | ≤ 1 |
| Octanoyl-AFLL[Hyp][NMeL]DPI-NH2 (also: lower-case ala, leu: meaning not given here) [JAL-1418] | ≤ 5 |
| B3 | ≤ 15 |

| Binder | EC50 group, cGMP in GTM-3 cells [µM] |
| --- | --- |
| Octanoyl-[Sni]F[dL]L[Hyp][NMeL]VRI-NH2 [JAL-1399] | ≤ 5 |
| Octanoyl-[dA]F[dL]L[Hyp][NMeL]DR[Aib]-NH2 [JAL-1413] | ≤ 5 |
| Octanoyl-AFLL[Hyp][NMeL][Tle]RI-NH2 (also: lower-case ala, leu: meaning not given here) [JAL-1420] | ≤ 15 |
| Octanoyl-[Sni]FLL[Hyp][NMeL]DPI-NH2 (also: lower-case leu: meaning not given here) [JAL-1436] | ≤ 5 |
| Octanoyl-AFLL[Hyp][NMeL]DR[ξαMeL]-NH2 (also: lower-case ala, leu: meaning not given here) [JAL-1414] | ≤ 1 |
| Octanoyl-[Sni]F[dDap(Me2)]L[Hyp][NMeL]VRI-NH2 [JAL-1400] | ≤ 15 |
| Octanoyl-[Sni]F[dL]L[Pro(trans-4-NH2)][NMeL]VRI-NH2 [JAL-1404] | ≤ 5 |
| Octanoyl-AFLL[Hyp][NMeL]D[Thz]I-NH2 (also: lower-case ala, leu: meaning not given here) [JAL-1442] | ≤ 5 |
| Octanoyl-AF[Api]L[Hyp][NMeL]DPI-NH2 (also: lower-case ala: meaning not given here) [JAL-1435] | ≤ 5 |
| Octanoyl-[dA]F[Apc(Me)]M[dE]L[Hyp][NMeL]DRI-NH2 [JAL-1406] | ≤ 1 |
| Octanoyl-AFLL[Hyp][NMeL]D[Hyp]I-NH2 (also: lower-case ala, leu: meaning not given here) [JAL-1441] | ≤ 15 |
| B4 | ≤ 15 |
| Octanoyl-AFLL[Hyp][NMeL]DR[Deg]-NH2 (also: lower-case ala, leu: meaning not given here) [JAL-1416] | ≤ 1 |
| Octanoyl-AFLL[Hyp][NMeL]D[dAze]I-NH2 (also: lower-case ala, leu: meaning not given here) [JAL-1437] | ≤ 5 |
| Octanoyl-AFLL[Hyp][NMeL][Gly(cPr)]RI-NH2 (also: lower-case ala, leu: meaning not given here) [JAL-1424] | ≤ 15 |
| Octanoyl-[dA]F[Apc(Et)]E[dT]L[Hyp][NMeL]DRI-NH2 [JAL-1407] | ≤ 1 |
